Experimental data taken from the nanobody polyreactivity screen of Harvey et al. (2022).

Assay: yeast display, Sf9 membrane polyspecificity reagent, FACS + sequencing; frameworks hold sequencing errors
Procedure, shortened: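 A nanobody's polyreactivity label depends on the gate it was sorted from. Yeast display cells were stained with 10% biotinylated, detergent-solubilized Sf9 membrane reagent for 1 hour at 4 °C, enriched on streptavidin microbeads and sorted by FACS. The low and high (top ~1%) gates were set on anti-HA fluorescence for expression and streptavidin fluorescence for reagent binding.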

Sequence	polyreactivity (PSR sort gate)
QVQLVESGGGLVQAGGSLRLSCAASGSIFTLNAMGWYRQAPGKEREFVAAITWSGGSTYYADSVKGRFTISRDNAKNTVYLQMNSLKPEDTAVYYCNVEPVDRWYYKYDYWGQGTQVTVSS	low polyreactivity
QVQLEESGGRLVQAGGSLRLSCAASGSTFITNAMGWYRQAPGKERELVAAITYSTGGTYYADSVKGRFTISRDNAKNTVYLQMNSLKPEDTAVYYCAALLYFFLYDYWGHGTQVTVSS	low polyreactivity
QVQLVESGGGLVQAGGSLRLSCAASGSIFWYNAMGWYRQAPGKESELVAAISWDGGSTYYADSVKGRFTISRDNAKNTVYLQMNSLKPEDTAVYYCNRVYIVWYTRYVVSGWYDYWGQGTEVTVSS	high polyreactivity
QVQLVESGGGLVQAGGSLRLSCASSGPIFVYKVKGWYRQAPGKERELVAAISWGTGSTYADSVKGRFTISRDNAKNTVYLQMYSLKPEDTAVYYCAAESFIPPYDHWGQGTQVTGSS	low polyreactivity
QVQLVESGGGLVQAGGSLRLSCAASGSIFSYYAMGWYRQAPGKERELVAAITRGGTTYYADSVKGRFTISRDNAKNTVYLQRNSLKPEDTAVYYCAASDYYGEYEYWGQGTQVTVSS	high polyreactivity
QVQLVESGGGLDQAGGSLRLSCAASGRTFKYYAMGWYRQAPGKERELVAAITRSGSTYYADSVKGRFTISRDNAKNTVYLQMNSLKPEDTAVYYGAADVTLYYRGRRYYYWGQGTQVTVSS	high polyreactivity
QVQLVESGGGLVQAGGSLRLSCAASGSIFGRNAMGWSRQAPGTERELVARISSRGGSTYYADSVKGRFTISRDNAKNTVYLQMNSLKPEDTAVYYCNRDRTWQTNDYWGQGTQVTVSS	high polyreactivity
QVQHVESGGGLVQAGGSLRLSCAASGSIFYYYTMGWYRQAPGKERELVAAITSGGSTYYADSVKGRFTISRDNAKNTVYIQMNSLKPDDTAVYYCAAEYHSFLWDMDYWGQGTQVTVST	high polyreactivity
QVQLVESGGGLVQAGGSLRLSCAASGSIFITYAMGWYRQAPGKERELVAAIRDSGDRTYYADSVKGRFTISRDNAKKTVYLQMNSLKPEDTAVYYCAARIWTGRGRKLGYGYDYWGQGTQVTVSS	low polyreactivity
QVQLVESGGGFVQAGGSLRLSCAASGRIFRYYTMGWYRKAPGKERELVAAISWTGASTYYADSVKGRFTISLDNAKNTLYLQMNSLKPEDTAVYYCAADSYIAHHGFAMDYWGQGTQVTVSS	low polyreactivity
QVQLLESGGGLVQAGGSLRLSCAASRRIIYGYAMGWYRQAPGKERELVAAITATYYADSVKGRFTISRDNPKNTVYLLMNSLKAVDTAVYYCNAYLSPKQPLSPQDPTFEGGYWGQCTQVTVSS	low polyreactivity
QVQLVESGGGLVQAGGSLRLSCAASGSTFQPYAMGWYRQSPGKEREFVATISGSAGSTYYADSVKGRFKISRDNAKNTVYLQMNSLKPEDTAVYYCNADSGWFGYDYWGQGTQVTVSS	low polyreactivity
QVQLVESGGGLVQAGGSLRLSCAASGSIFKVYAMGWYRQAPGKERELVATISGSGGSTYYADSVKGRFTISRDNAKNTVYLQMNSLKPEDTAVYYCAAEVYVPDYFQHKFDVEYEYWGQGTQVTVSS	low polyreactivity
QVQLVESGGGLVQAGGSLRLSCAASGSIFDLNAMGWYRQAPGKERELVAAISKSGGSTYYADSVKGRFTISRDNAKNTVYLQMISLKPEDSAVYYCAARYHYPGNWYNYWGQGTQVTVSS	low polyreactivity
QVQLVESGGGLVQAGGSLRLSCAASGRIFKPNAMGWYRQAPGKERELVASITSRGTSTYYADSVKGRFTISRDNAKNTVYLQMNSLKPEDTAVYYCAARPIHYPPYYYWGQGTQVTVSS	high polyreactivity
QVQLVESGGGLVQAGGSLRLSCAASGRIFSYYVMGWNRQAPGKERELVAAITSGGSTNYADSEKGRFTISRDNAKNTVYLQMNSLKPEDTAVYYCNRAYTYINRLYGYWGQGTQVTVSS	high polyreactivity
QVQLVESGGGLVQAGGSLRLSCAASGSTLIWNVMGWYRQAPGKERELVATISSGGRTYYADSVKGRFTISRDNAKNTVYLQMNSLKPEDTAVYYCAARSRRGVSYRSYRSFDYWGQGTQVTVSS	high polyreactivity
QVQLVESGGGLVQAGGSLRLSCAASGIIFYYYVMGWDRQAPGKERELVAAISDSGDNTYYADSVKGRFTISRDNAKKTVYLQMNSVKPEDTAVYYCNSQVDYWSNPWIYRKYDYWGQGTQVTVSS	high polyreactivity
QDQHVESGGGLVQAGGSLRLSCAASGSTFGDNAMGWYRQAPGKERELVAAISRGGRTYYADSVKGRFTISRDNAKNTVYLQMNSLKPEDTAVYYCAATSAYRGYWVLRGLSYDYWGQGTQVTVSS	high polyreactivity
QVQLVESGGCLVQAGGSLRLSCSASGSIFNYNDMGWYRQAPGKERELVAAIDSSGTSTYYADSVKGRYTISRDNSKNNVYLQMTSLKPEDTAVYYCNADSSLGFGYWGQGTQVTVSS	low polyreactivity
QVQLVESGGGLVQAGGSLRLSCAASGRTFTVYAMGWYRLAPGKERELVAAISSGGITNYADSVKGRFTISRDNAKNTVYLQMNSLKPEDTAVYYCNTKSGKARYEFGYWGQGTQVTLSS	low polyreactivity
QVQLVESGGGLVQAGGSLRLICAGSGSTFPTYAMGWYRQAPGKERELVAAITSGSGTNTYYADSVKGRFTISRDNAKNTVYLQMNSLKPEDTAVYYCAASGGKNGMNYWGQGTQVTVSS	high polyreactivity

Sequence	polyreactivity (PSR sort gate)
QVQLVESGGGLVQAGGSLRLSCAASGRIFQRYAMGWYRQSPGKERELVAGITSSGGSTYYADSVKGRFTISRDNAKNTVYLQMNSLKPEDTAVSYCNAGGELCYYGYRAGCTTRSYDYWGQGTLVTVSS	low polyreactivity
QVQLVESGGGLVQAGGSLRLSCAASAGIFVVYGMGWYRQAPGKERELVAAISWRGGSTYYADSVKGRFTISRDNAKNTVYLQMNSLKPEDTAVYYCAADQYYGGYDYWGQGTQVTVSS	low polyreactivity
QVQLVESGGGLVQAGGSLRLSCAASGSIFAVNAMGWYRQAPGKERELVAAIDWSDGITYYADSVKGRFTISRDNAKNTVYLQMNSLKPEDTAVYYCAADATAYGWYVEQFSFYDNDYWGQGTEVTVSS	high polyreactivity
QVQLVESGGGLVQAGGSLRLSCAASGRTFPYNAMGWYRQAPGKERELVAAITWRGGRTYYADSVKGRFTISRDYAKNTVYLQMNSLKPEDSAVYYCATVRVSRVRPFWNVWRSNYWGQGTQVTVSS	high polyreactivity
QVQLVESGGGLVQAGGSLRLSCAASGFTFFKYAMGWYRQAPGKERVLVAAITRNGGRTYYADSVKGRFTISRDNAKNTVYLQMNSLKPEDTAVYYCNAASVNGGRDFDYWGQGTQVTVSS	high polyreactivity
QVQLVESGGGLVLPGGSLRLSCAASGITFTYNAMGWYRQAPGQERELVAAISYSGGSTYYADSVKGRFTISRDNAKNTVYLQMNSLTPEDTAVYYCARRRLLYSGGKSGYYGYYYWGQGTQVNVSS	high polyreactivity
QVQLVESGGRLVQEGGSLRLRCAASGSIFSGYAMGWSRQAPGKERELVAVITRGGNTNYADSVKGRFTISRDNAKNTVSLQMNSLTPEDTAVYYCAVDLRKSYRHKFDFNYWGQGTQVTVSS	low polyreactivity
QVQLVESGGGLVQAGGSLRLSCAASGLILRGYAMGWYRQAPGKERELVAAISGSGGRTYYADSVKGRFTISRDNAKNTVYLQMNSLKPEDTAVYYCNKGGIREYDYWGQGTQVTVSS	high polyreactivity
QDQLVESRGGLVQAGGSLRLSCAASGSTFGKNTMGWYRQAPGKERELVAAISRGVSTYYADSVKGRFTISRDNAKNTVYLQMNSLKPEDTAVYYCAAQEAYRWYGFDYWGQGTQVTVSS	high polyreactivity
QVQLVESGGGLVQAGGSLRLSCAASGGTFTKNPMGWYRQAPGKERELVATITFSDGSTYYADSVKGRFTISRDNAKNTVYLQMNSLKPEDTAVYYCNARRSYFLRYGVNYWGQGTQVTVSS	low polyreactivity
QVQLVDSGGGLVQAGGSLRLSCAASGSNFDDYAMGWYRQAPGKERELVAAISSSGTSTYYADSVKGRFTISRDNAKNTVYLQMNSLKPEDTAVYYCAAKKKYHYVASYKRFEYWGQGTQVTVSS	low polyreactivity
QVQLVESGGGLVQAGGSLRLSCAASGRTFSYNAMGWYRQAPGKERELVAVISASGGRTNYADSVKGRFTISRDNAKNTVYLQMNSLKPEDTAVYYCNALFGLGVKGYDYWGQGTQVTVSS	low polyreactivity
QVQLVESGGGLVQARGSLRLSCAASGSTILYYAMGWYRQAPGKERELVAVIRLDAGRTYYADSVKGRFTISRDNAKNTVYFQMNSLKPEDTAVYYCAAKGCFRTYGGGNYWGQGTQVTVSS	high polyreactivity
QVQLVESGGGLVQAGGSLRLSCAASGSTSNTMTWDGIDRRLGKKGSWLPPITVSGGGTYYADSVKGRFTISRDNANNTVYLQMNSLKPEDTAVYYCATEYELAIYGDDYWGQGTQVTVSS	low polyreactivity
QVQLVESGGGLVQAGGSLRLSCAASGITFYKYTMGWYRQAPGKERELVAAISVRGGRTYYADSVKGRFTISRDNAKNTVYLQMNSLKPEDTAVYYCNRVPKDAYDYWGQGTQVTVSS	high polyreactivity
QVQLVESGVGLYQAGGSLRLSCAASGSIFEENAMVWYRQAPGKEMELVAAITIGGRTNYADSVKGRFTISRDNAKNTVYLEMNSLKPEDTAVYYCASDLSSIKYWLFWTRYYYWGQGTQVNVSS	low polyreactivity
QVQLVESVGGLVQAGGSLRLTCAASGRILGYYAMGWYRQAPWKERELVAAISRAGSTNYADSVKGRFTISRDNAKNTVNLQMNSLKPEHTAVYYCAARQYRRGYNYWGQGTQVTVSS	high polyreactivity
QVQLVESGGGLVQAGGSLRLSCASSGSIFYGYAMGWYRQAPGKERELVAAINNSGVSTYYADSVQGRFTISRDNAKNTVYLQMNSLKPEDTAVYYCNKAGAYPYHYDYWGQGTQGTVSS	low polyreactivity
QVQLVESGGGLVQAGGSLRLSCAASGLIFYYYVKGWYRQAPGKERELVAAISVIGDSTYYADSVKGRFTISRDNAKNTVYLQMNSLKPEDTAVYYCNADPWRWDRESRYEYWGQGTQVSVSS	high polyreactivity
QVQLVESGGGLVQAGGSLRLSCAASGFILRYYAMGWYRPAPGNERELVAAISSGGGTYYADSVKGRFTISRDNAKNTVYLQMNSLKPEDTAVYYCNKASTSYYRFNYWGQGTQVTVSS	high polyreactivity
QVQLVESGGGLVQAGGSLRLSCAASGSIFSSNAMGWYRQAPGKERELVAAISSSGSRTYYADSVKGRFTISRDNAKNTVYLQMNSLKPEDTAVYYCAAVIRYTRSYDYWGQGTQVTVSS	high polyreactivity
